Reference: patent US20220162322A1

Key:
[1] = target: human BDCA-2-Fc (hIgG1-Fc-hBDCA-2) (human); assay: ELISA on plate-coated human BDCA2-Fc
[2] = target: human BDCA-2-Fc (hIgG1-Fc-hBDCA-2) (human); assay: SPR (BIAcore T200), huBDCA2-Fc immobilised on CM5 chip, mAb injected
[3] = target: BDCA-2 (CLEC4C, CD303) on human plasmacytoid dendritic cells (purified pDC or pDC within PBMC) (human) (UniProt Q8WTT0); assay: cell-based or functional assay
Chain of BDCA-2 (CLEC4C, CD303) on human plasmacytoid dendritic cells (purified pDC or pDC within PBMC) (human) (Q8WTT0 whole entry): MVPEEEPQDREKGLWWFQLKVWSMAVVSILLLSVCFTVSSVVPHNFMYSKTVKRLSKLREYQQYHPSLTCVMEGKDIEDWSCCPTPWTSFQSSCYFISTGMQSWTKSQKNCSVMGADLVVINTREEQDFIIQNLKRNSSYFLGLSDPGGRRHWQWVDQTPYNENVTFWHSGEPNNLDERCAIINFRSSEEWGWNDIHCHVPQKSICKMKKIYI

Chain of human BDCA-2-Fc (hIgG1-Fc-hBDCA-2) (human) (chain, as listed by the source limits assumed): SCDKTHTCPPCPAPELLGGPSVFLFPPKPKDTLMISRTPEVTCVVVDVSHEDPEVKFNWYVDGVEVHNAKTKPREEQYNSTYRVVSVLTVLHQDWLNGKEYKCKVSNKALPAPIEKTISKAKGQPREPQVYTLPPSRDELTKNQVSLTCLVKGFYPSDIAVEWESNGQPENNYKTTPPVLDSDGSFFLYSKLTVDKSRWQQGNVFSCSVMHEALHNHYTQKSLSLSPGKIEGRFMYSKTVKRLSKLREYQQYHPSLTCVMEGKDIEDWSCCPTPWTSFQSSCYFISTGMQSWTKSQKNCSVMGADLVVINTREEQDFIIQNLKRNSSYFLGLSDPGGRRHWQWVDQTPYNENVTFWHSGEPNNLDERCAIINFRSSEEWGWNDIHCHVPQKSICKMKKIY

Substance: anti-BDCA-2 mAb AC144 (Miltenyi Biotec, cat. no. 130-090-690) (antibody)
- EC50 [1]: 0.27 nM
- Kd [2]: 2.3 nM
- IC50, nM; inhibition of IFNα from ODN stimulated healthy donor PBMC [3]: 1.52 nM
- IC50, ng/ml; inhibition of IFNα from ODN stimulated healthy donor PBMC [3]: 228 ng/mL
- IC90, nM; inhibition of IFNα from ODN stimulated healthy donor PBMC [3]: 13.7 nM
- IC90, ng/ml; inhibition of IFNα from ODN stimulated healthy donor PBMC [3]: 2060 ng/mL
